IntAct's records for PubMed 26559832

B1: Ribonucleoside-diphosphate reductase large subunit (Human herpesvirus 2 (strain HG52) (HHV-2)), P89462 (parent)
chain: MANRPAASALAGARSPSERQEPREPEVAPPGGDHVFCRKVSGVMVLSSDPPGPAAYRISDSSFVQCGSNCSMIIDGDVARGHLRDLEGATSTGAFVAISNVAAGGDGRTAVVALGGTSGPSATTSVGTQTSGEFLHGNPRTPEPQGPQAVPPPPPPPFPWGHECCARRDARGGAEKDVGAAESWSDGPSSDSETEDSDSSDEDTGSETLSRSSSIWAAGATDDDDSDSDSRSDDSVQPDVVVRRRWSDGPAPVAFPKPRRPGDSPGNPGLGAGTGPGSATDPRASADSDSAAHAAAPQADVAPVLDSQPTVGTDPGYPVPLELTPENAEAVARFLGDAVDREPALMLEYFCRCAREESKRVPPRTFGSAPRLTEDDFGLLNYALAEMRRLCLDLPPVPPNAYTPYHLREYATRLVNGFKPLVRRSARLYRILGVLVHLRIRTREASFEEWMRSKEVDLDFGLTERLREHEAQLMILAQALNPYDCLIHSTPNTLVERGLQSALKYEEFYLKRFGGHYMESVFQMYTRIAGFLACRATRGMRHIALGRQGSWWEMFKFFFHRLYDHQIVPSTPAMLNLGTRNYYTSSCYLVNPQATTNQATLRAITGNVSAILARNGGIGLCMQAFNDASPGTASIMPALKVLDSLVAAHNKQSTRPTGACVYLEPWHSDVRAVLRMKGVLAGEEAQRCDNIFSALWMPDLFFKRLIRHLDGEKNVTWSLFDRDTSMSLADFHGEEFEKLYEHLEAMGFGETIPIQDLAYAIVRSAATTGSPFIMFKDAVNRHYIYDTQGAAIAGSNLCTEIVHPASKRSSGVCNLGSVNLARCVSRQTFDFGRLRDAVQACVLMVNIMIDSTLQPTPQCTRGNDNLRSMGIGMQGLHTACLKMGLDLESAEFRDLNTHIAEVMLLAAMKTSNALCVRGARPFSHFKRSMYRAGRFHWERFSNASPRYEGEWEMLRQSMMKHGLRNSQFIALMPTAASAQISDVSEGFAPLFTNLFSKVTRDGETLRPNTLLLKELERTFGGKRLLDAMDGLEAKQWSVAQALPCLDPAHPLRRFKTAFDYDQELLIDLCADRAPYVDHSQSMTLYVTEKADGTLPASTLVRLLVHAYKRGLKTGMYYCKVRKATNSGVFAGDDNIVCTSCAL

Variants of: B1
Conditions: with ripk3_human RIPK3, Q9Y572
Chain of ripk3_human RIPK3, Q9Y572 (Q9Y572 whole entry, looked up): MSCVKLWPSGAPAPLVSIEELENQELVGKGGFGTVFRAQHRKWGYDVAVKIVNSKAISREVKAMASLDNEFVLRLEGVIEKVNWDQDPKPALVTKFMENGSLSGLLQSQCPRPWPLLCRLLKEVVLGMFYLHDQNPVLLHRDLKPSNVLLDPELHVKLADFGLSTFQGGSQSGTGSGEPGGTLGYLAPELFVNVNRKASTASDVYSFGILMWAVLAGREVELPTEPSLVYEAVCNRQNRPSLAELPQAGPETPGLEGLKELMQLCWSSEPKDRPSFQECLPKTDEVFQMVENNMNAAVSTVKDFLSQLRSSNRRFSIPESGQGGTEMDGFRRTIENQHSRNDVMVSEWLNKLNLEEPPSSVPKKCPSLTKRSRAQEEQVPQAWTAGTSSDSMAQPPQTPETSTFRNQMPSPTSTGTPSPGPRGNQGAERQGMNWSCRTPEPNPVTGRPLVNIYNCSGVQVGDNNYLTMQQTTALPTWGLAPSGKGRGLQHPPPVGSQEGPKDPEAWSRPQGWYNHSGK

Variant | effect of a mutation on the interaction
V64A;Q65A;C66A;G67A | decreasing interaction strength
